Measurements taken from patent publication CN113061185A (EXCYTE BEIJING PHARMACEUTICAL TECH DEVELOPMENT CO LTD, dated 2021).

T1: BCMA on the surface of BCMA-positive cell lines H929 (NCI-H929) and RPMI8226 (human, UniProt Q02223 1-184)
T1 construct: whole, on cells; Endogenous BCMA of the cell lines; also called 细胞膜表面的BCMA抗原
T1 sequence (looked up): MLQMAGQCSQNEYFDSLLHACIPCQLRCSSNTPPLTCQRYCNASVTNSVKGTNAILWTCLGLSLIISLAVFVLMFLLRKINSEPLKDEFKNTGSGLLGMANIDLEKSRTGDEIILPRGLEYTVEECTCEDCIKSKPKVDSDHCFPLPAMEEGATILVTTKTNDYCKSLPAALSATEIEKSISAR

T2: BCMA-Fc fusion protein (Acrobiosystems, catalogue no. BC7-H5254) (human, UniProt Q02223 1-54)
T2 construct: Bought fusion protein; Used as coated antigen in ELISA; also called BCMA抗原; BCMA-Fc抗原; not shown: human Fc
T2 sequence (looked up): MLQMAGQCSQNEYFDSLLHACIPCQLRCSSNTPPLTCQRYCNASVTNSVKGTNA


Assays:
[1] = target: T1, BCMA on the surface of BCMA-positive …; test: flow cytometry on RPMI8226 cells; EC50 relative to J6
[2] = target: T1, BCMA on the surface of BCMA-positive …; test: as above; remark: listed apart in the source
[3] = target: T1, BCMA on the surface of BCMA-positive …; test: flow cytometry on RPMI8226 cells
[4] = target: T2, BCMA-Fc fusion protein (Acrobiosystems, …); test: ELISA, intrinsic affinity
[5] = target: T1, BCMA on the surface of BCMA-positive …; test: flow cytometry on H929 cells
[6] = target: T1, BCMA on the surface of BCMA-positive …; test: flow cytometry (FACS), apparent affinity on BCMA-bearing cells
[7] = target: T1, BCMA on the surface of BCMA-positive …; test: flow cytometry, antibody titration on RPMI8226 cells
[8] = target: T2, BCMA-Fc fusion protein (Acrobiosystems, …); test: ELISA on BCMA; EC50 relative to J6
[9] = target: T2, BCMA-Fc fusion protein (Acrobiosystems, …); test: ELISA; affinity estimated from the EC50 ratio to J6 (J6 taken as 0.2 nM)

| Binder | fold improvement of EC50 over J6 [1] [fold] | 相对于J6提高倍数 (fold improvement of EC50 over J6) [2] [fold] | 细胞结合百分率 (percent of cells bound) [3] [%] | Kd [4] [nM] | 细胞结合百分率 (percent of cells bound) [5] [%] | Kd [6] [nM] | EC50 [7] [µg/mL] | Fold of J6 (EC50 ratio) [8] [fold] | Kd [9] [nM] |
| --- | --- | --- | --- | --- | --- | --- | --- | --- | --- |
| B10 parental antibody as expressed and purified in Example 3 (antibody, V domains shown, also called 亲本B10; B10亲本抗体) VH: QVQLQQSGAEVKKPGSSVKVSCKASGGTFSSYAISWVRQAPGQGLEWMGGIIPIFGTANYAQKFQGRVTITADESTSTAYMELSSLRSEDTAVYYCARGWYFDLWGRGTLVTVSS VL: LPVLTQPPSASGTPGQRVTISCSGSSSNIGGYSVNWYQQFPGTAPKLLIYRNNQRPSGVPDRFSGSKSGASASLAISGLQSEDEADYYCAAWDDSLIGYVFGTGTQLTVL | ~1.5 | 1.74 | 5.54 | ~10 | 75.3 | 0.3 | 1.57 | – | – |
| B10.3 (affinity-matured mutant of B10) (scFv, also called 突变体B10.3) scFv: QVQLQQSGAEVKKPGSSVKVSCKASGGTFSKSAIQWVRQAPGQGLEWMGGVIPIFGTANYAQKFQGRVTITADESTSTAYMELSSLRSEDTAVYYCARGWYLDLWGRGTLVTVSSGGSSRSSSSGGGGSGGGGLPVLTQPPSASGTPGQRVTISCSGSSNNIGGYSVNWYQQFPGTAPKLLIYRNNQRPSGVPDRFSGSKSGASASLAISGLQSEDEADYYCAAWDDSVIGWLFGTGTQLTVL | – | 97.1 | 54.9 | – | 98 | – | 0.0282 | 1.29 | 0.26 |

The next lines start with the values.

| fold improvement of EC50 over J6 [1] [fold] | 相对于J6提高倍数 (fold improvement of EC50 over J6) [2] [fold] | 细胞结合百分率 (percent of cells bound) [3] [%] | Kd [4] [nM] | 细胞结合百分率 (percent of cells bound) [5] [%] | Kd [6] [nM] | EC50 [7] [µg/mL] | Fold of J6 (EC50 ratio) [8] [fold] | Kd [9] [nM] | Binder |
| --- | --- | --- | --- | --- | --- | --- | --- | --- | --- |
| – | 79.9 | 57.5 | – | 97.9 | – | 0.0343 | 1.55 | 0.31 | B10.4 (affinity-matured mutant of B10) (scFv, also called 突变体B10.4) scFv: QVQLQQSGAEVKKPGSSVKVSCKASGGTFSKSAIMWVRQAPGQGLEWMGGVIPIFGTANYAQKFQGRVTITADESTSTAYMELSSLRSEDTAVYYCARGWYLDLWGRGTLVTVSSGGSSRSSSSGGGGSGGGGLPVLTQPPSASGTPGQRVTISCSGSSNNIGGYSVNWYQQFPGTAPKLLIYRNNQRPSGVPDRFSGSKSGASASLAISGLQSEDEADYYCAAWDDSVIGWLFGTGTQLTVL |
| – | 60.7 | 42.9 | – | 91.6 | – | 0.0451 | 1.43 | 0.29 | B10.9 (affinity-matured mutant of B10) (scFv, also called 突变体B10.9) scFv: QVQLQQSGAEVKKPGSSVKVSCKASGGTFSKSAIQWVRQAPGQGLEWMGGVIPIFGTANYAQKFQGRVTITADESTSTAYMELSSLRSEDTAVYYCARGWYLDLWGRGTLVTVSSGGSSRSSSSGGGGSGGGGLPVLTQPPSASGTPGQRVTISCSGSSNNIGGYSVNWYQQFPGTAPKLLIYRNNQRPSGVPDRFSGSKSGASASLAISGLQSEDEADYYCAAWDDSEIGWLFGTGTQLTVL |
| – | 67.5 | 58.2 | – | 97.2 | – | 0.0406 | 1.35 | 0.27 | B10.5 (affinity-matured mutant of B10) (scFv, also called 突变体B10.5) scFv: QVQLQQSGAEVKKPGSSVKVSCKASGGTFSKSAIHWVRQAPGQGLEWMGGVIPIFGTANYAQKFQGRVTITADESTSTAYMELSSLRSEDTAVYYCARGWYLDLWGRGTLVTVSSGGSSRSSSSGGGGSGGGGLPVLTQPPSASGTPGQRVTISCSGSSSNIGGYSVNWYQQFPGTAPKLLIYRNNQRPSGVPDRFSGSKSGASASLAISGLQSEDVADYYCAAWDDSLIGYVFGTGTQLTVL |
